T1: M. tuberculosis HddA enzyme (MtbHddA) (M. tuberculosis, UniProt O53637 1-386)
T1 sequence: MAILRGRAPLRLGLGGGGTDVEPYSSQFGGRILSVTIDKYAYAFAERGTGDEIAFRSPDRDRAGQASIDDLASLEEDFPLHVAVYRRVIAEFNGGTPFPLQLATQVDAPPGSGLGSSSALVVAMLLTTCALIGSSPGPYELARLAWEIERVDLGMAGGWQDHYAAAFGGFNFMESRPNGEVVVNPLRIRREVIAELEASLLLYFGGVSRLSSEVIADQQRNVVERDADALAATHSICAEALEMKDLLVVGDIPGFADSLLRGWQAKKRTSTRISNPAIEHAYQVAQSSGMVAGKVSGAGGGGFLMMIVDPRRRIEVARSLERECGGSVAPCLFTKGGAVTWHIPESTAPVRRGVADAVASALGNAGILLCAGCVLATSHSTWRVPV

B1: M. tuberculosis sedoheptulose-7-phosphate isomerase (MtbGmhA), wild type (enzyme)
chain: MCTARTAEEIFVETIAVKTRILNDRVLLEAARAIGDRLIAGYRAGARVFMCGNGGSAADAQHFAAELTGHLIFDRPPLGAEALHANSSHLTAVANDYDYDTVFARALEGSARPGDTLFAISTSGNSMSVLRAAKTARELGVTVVAMTGESGGQLAEFADFLINVPSRDTGRIQESHIVFIHAISEHVEHALFAPRQ
notes: also called Rv0113; not shown: His6, N-terminal, kept

What was measured:
SEC = molecular target: the molecule itself; test: SEC
[1] = molecular target: T1, M. tuberculosis HddA enzyme (MtbHddA); test: SPR; MtbGmhA immobilised (legend of Figure 4) on a gold surface activated by EDC-NHS; 25 °C; steady-state fit, Langmuir 1:1 model; details: both partners purified
[2] = molecular target: T1, M. tuberculosis HddA enzyme (MtbHddA); test: SPR; details: both partners purified
[3] = molecular target: B1; test: SPR; MtbGmhA immobilised (legend of Figure 4) on a gold surface activated by EDC-NHS; 25 °C; steady-state fit, Langmuir 1:1 model; details: both partners purified

Binder | stoichiometry N (SEC) | Kd [1] [µM] | Kd [2] [µM] | Kd [3] [µM]
B1 | 4 | 8.45 ± 0.45 | – | –
M. tuberculosis GmhB enzyme (MtbGmhB) (enzyme) MVAERAGHQWCLFLDRDGVINRQVVGDYVRNWRQFEWLPGAARALKKLRAWAPYIVVVTNQQGVGAGLMSAVDVMVIHRHLQMQLASDGVLIDGFQVCPHHRSQRCGCRKPRPGLVLDWLGRHPDSEPLLSIVVGDSLSDLELAHNVAAAAGACASVQIGGASSGGVADASFDSLWEFAVAVGHARGERG | – | – | 20 ± 0.95 | 4.9 ± 0.11
